# Reference: patent US20250313644A1 (FUTUREGEN BIOPHARMACEUTICAL BEIJING, published 2025)
# Positions count from the first letter of the chain named. Where two headings read alike, the source gives them in different places.
# T1: human TL1A (HuTL1A) (human, UniProt O95150 57-251, limits assumed, biotin-labelled in some assays (site not stated))
# T1 construct: Expressed in EXPI-293 cells and purified by Ni-NTA (His-tag); Described as a trimeric antigen; also called TL1A antigen; WT
# T1 sequence: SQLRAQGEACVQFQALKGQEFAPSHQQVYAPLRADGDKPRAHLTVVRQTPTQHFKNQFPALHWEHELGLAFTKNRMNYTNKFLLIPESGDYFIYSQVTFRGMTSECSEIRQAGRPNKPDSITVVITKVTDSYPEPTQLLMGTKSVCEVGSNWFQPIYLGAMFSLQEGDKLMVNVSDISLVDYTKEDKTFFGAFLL
# B1: single-arm antibody M701-3952 (antibody, human IgG1, kappa, L234A L235A)
# heavy: ELQLQESGPGLVKPSETLSLTCAVSGVSFSDYHWAWIRQPPGKGLEWIGDINHRGHTNYNPSLKSRVTVSIDTSKNQFSLKLSSVTAADTAVYFCARDFPNFIFDYWGQGTLVTVSSASTKGPSVFPLAPSSKSTSGGTAALGCLVKDYFPEPVTVSWNSGALTSGVHTFPAVLQSSGLYSLSSVVTVPSSSLGTQTYICNVNHKPSNTKVDKKVEPKSCDKTHTCPPCPAPEAAGGPSVFLFPPKPKDTLMISRTPEVTCVVVDVSHEDPEVKFNWYVDGVEVHNAKTKPREEQYNSTYRVVSVLTVLHQDWLNGKEYKCKVSNKALGAPIEKTISKAKGQPREPQVYTLPPCREEMTKNQVSLWCLVKGFYPSDIAVEWESNGQPENNYKTTPPVLDSDGSFFLYSKLTVDKSRWQQGNVFSCSVMHEALHNHYTQKSLSLSPG
# light: not shown
# chain: DKTHTCPPCPAPEAAGGPSVFLFPPKPKDTLMISRTPEVTCVVVDVSHEDPEVKFNWYVDGVEVHNAKTKPREEQYNSTYRVVSVLTVLHQDWLNGKEYKCKVSNKALGAPIEKTISKAKGQPREPQVCTLPPSREEMTKNQVSLSCAVKGFYPSDIAVEWESNGQPENNYKTTPPVLDSDGSFFLVSKLTVDKSRWQQGNVFSCSVMHEALHNHYTQKSLSLSPG
# B2: single-arm antibody 3672 (antibody, human IgG1, kappa, L234A L235A)
# heavy: ELQLQESGPGLVKPSETLSLTCAVSGLSFTDFYWAWIRQPPGKGLEWIGEINHKGNTSYNPSLKSRVTVSIDTSKNQFSLKLSSVTAADTAVYFCARDFPNYTFDFWGQGTLVTVSSASTKGPSVFPLAPSSKSTSGGTAALGCLVKDYFPEPVTVSWNSGALTSGVHTFPAVLQSSGLYSLSSVVTVPSSSLGTQTYICNVNHKPSNTKVDKKVEPKSCDKTHTCPPCPAPEAAGGPSVFLFPPKPKDTLMISRTPEVTCVVVDVSHEDPEVKFNWYVDGVEVHNAKTKPREEQYNSTYRVVSVLTVLHQDWLNGKEYKCKVSNKALGAPIEKTISKAKGQPREPQVYTLPPCREEMTKNQVSLWCLVKGFYPSDIAVEWESNGQPENNYKTTPPVLDSDGSFFLYSKLTVDKSRWQQGNVFSCSVMHEALHNHYTQKSLSLSPG
# light: not shown
# chain: B1 chain
# notes: also called M701-3672
# B3: M701-3756 (antibody, human IgG1, kappa, L234A L235A, V domains shown)
# VH: ELQLQESGPGLVKPSETLSLTCAVSGLSFTDFYWAWIRQPPGKGLEWIGEINHKGNTSYNPSLKSRVTVSIDTSKNQFSLKLSSVTAADTAVYFCARDFPNYTFDFWGQGTLVTVSS
# VL: DIQLTQSPGTLSLSPGERATLSCRASQSVSNHLAWYQQKPGQAPRLLIYGASKRATGIPDRFSGSGSGTDFTLTISRLEPEDFAVYYCQQYADAPLTFGQGTKVEIKR
# notes: Fc-engineered IgG1; from the original phage library
# B4: M701-3876 (antibody, human IgG1, kappa, L234A L235A, V domains shown)
# VH: EVQLQESGPGLVKPSETLSLTCAVSGVSYSDYHWAWIRQPPGKGLEWIGDINHKGKTNYNPSLKSRVTISVDTSKNQFSLKLSSVTAADTAVYYCARDYPNFLFDYWGQGTLVTVSS
# VL: B3 VL with D1A, L4M, N31S, K53R, D60A, A94S
# notes: Fc-engineered IgG1
# B5: M701-3912 (antibody, human IgG1, kappa, L234A L235A, V domains shown)
# VH: ELQLQESGPGLVKPSETLSLTCAVSGISFNDFHWAWIRQPPGKGLEWIGDINHRGHTSYNPSLKSRVTVSVDTSKNQFSLKLSSVTAADTAVYYCARDYPNFTFDLWGQGTLVTVSS
# VL: DIQMTQSPATLSLSPGERATLSCRASQSVSTYLAWYQQKPGQAPRLLIYGASRRATGIPARFSGSGSGTDFTLTISSLQSEDFAVYYCQQYGDTPLTFGQGTKVEIKR
# notes: Fc-engineered IgG1
# Columns and labels:
# human TL1A (HuTL1A) [1] = biological target: T1, human TL1A (HuTL1A); assay: BLI (Gator), biotin-HuTL1A on SA probe, pH 7.4; BLI (Gator), pH 7.4
# Procedure: The binding kinetics between monoclonal antibodies and antigens was measured using Gator, a label-free biomolecule interaction analyzer based on the principle of biolayer interference (BLI). […] Then a serial dilutions of single-arm M701 antibodies and control antibodies were added. The antibodies interacted with the antigen captured by the SA probe, and the interaction was analyzed by detecting the signal change of the reflection interference spectrum of the probe surface, and finally the binding kinetics constants of the antibodies were calculated. The kinetic constants of antigen and antibodies were measured at pH 7.4 and 5.6 in sodium dihydrogen phosphate-citrate buffer.
# [2] = biological target: T2, cynomolgus monkey/rhesus monkey TL1A (cynomolgus monkey/rhesus monkey); assay: BLI (Gator), His-tagged TL1A on anti-His probe, pH 7.4
# T2 construct: also called Cynomolgus/rhesus monkey TL1A
# Procedure: (§1) Then a serial dilutions of single-arm M701 antibodies and control antibodies were added.
# human TL1A (HuTL1A) [3] = biological target: T1, human TL1A (HuTL1A); assay: as above
# Procedure: as §1
# human TL1A (HuTL1A) [4] = biological target: T1, human TL1A (HuTL1A); assay: ELISA: biotin-HuTL1A on streptavidin plate, antibody diluted at pH 7.4, HRP-anti-human Fc, OD450
# Procedure: (§2) Corresponding antibodies were added to specific wells, and the antibodies were diluted with sodium dihydrogen phosphate-citrate buffer at pH 7.4, pH 6.0, pH 5.8, or pH 5.6. Binding assay was carried out at room temperature for 30 minutes. After the incubation, the excess antibodies were removed and the wells were washed by PBST. HRP-anti-Human Fc (Sino Biological) was then added into each well and incubated for 30 minutes to detect the bound antibody. The substrate TMB was finally added to develop color for 5-10 minutes. The color development reaction was terminated with 1M sulfuric acid. OD450 nm was recorded on a microplate reader, and the data were processed and fitted by 4 parameter logistic regression.
# human TL1A (HuTL1A) [5] = biological target: T1, human TL1A (HuTL1A); assay: as above; remark: listed apart in the source
# Procedure: as §2
# human TL1A (HuTL1A) [6] = biological target: T1, human TL1A (HuTL1A); assay: cell-based or functional assay
# human TL1A (HuTL1A) [7] = biological target: T1, human TL1A (HuTL1A); assay: DLS, antigen and antibody mixed in equal moles
# Procedure: 60 μM antigen and antibody was mixed in equal moles, incubated at room temperature for 30 minutes, and then the molecular size was detected using UNCLE or SEC.
Binder,EC50 (read off the curve) (human TL1A (HuTL1A) [4]),EC50 (read off the curve) (human TL1A (HuTL1A) [5]),"IC50 (read off the curve); SEAP reporter in HEK293T/DR3-NFκB cells with soluble TL1A, OD655 (human TL1A (HuTL1A) [6])",Ave Z-dia (nm) of the antigen-antibody complex (human TL1A (HuTL1A) [7]),further results
B1,~0.5 nM,~0.5 nM,–,–,Kd (human TL1A (HuTL1A) [1]): 5.25 nM; koff (human TL1A (HuTL1A) [1]): 0.00306 s⁻¹; kon (human TL1A (HuTL1A) [1]): 582000 M⁻¹ s⁻¹; Kd [2]: 5.75 nM; koff [2]: 0.0036 s⁻¹; kon [2]: 626000 M⁻¹ s⁻¹; Kd (human TL1A (HuTL1A) [3]): 5.68 nM; koff (human TL1A (HuTL1A) [3]): 0.00346 s⁻¹; kon (human TL1A (HuTL1A) [3]): 610000 M⁻¹ s⁻¹
B2,~3 nM,~3 nM,–,–,–
B3,–,–,~1 nM,19.1 nm,–
B4,–,–,~1 nM,18.7 nm,–
B5,–,–,–,18.5 nm,–
